The target of assay [1] is Leishmania major tubulin-binding cofactor A (Leishmania major Friedlin). Put plainly: SEC; calibrated Superdex 75 26/60 column, 50 mM Tris-HCl, 250 mM NaCl pH 7.5, no reducing agent.
Assay [2] shares this target. Briefly: MALDI-TOF mass spectrometry; sample that was used for crystallization (the approx. 27 kDa gel-filtration peak).

Drawing on PMC4427162, this text covers stoichiometry N for 1 substance.

One may read the stoichiometry N as the number of molecules, sites or subunits per partner or assembly. Turning to “Leishmania major tubulin-binding cofactor A (natural protein)”, the stoichiometry N in assay [1] and in assay [2] was 2 throughout.
